According to publication PMC12718381:

Target: HA-STIM1-L258C (UniProt Q13586)
Test: disulfide crosslinking, Western blot
Settings: diamide-treated STIM1/2 DKO HEK293 cells coexpressing HA-STIM1-L258C and a single mCh-STIM1 mutant; read off a plot

Substance	other: Crosslinking (%)
mCh-STIM1 418C	3.8%
mCh-STIM1 424C	7%
mCh-STIM1 421C	1.8%

More lines, now with the values ahead:

other: Crosslinking (%)	Substance
1.2%	mCh-STIM1 422C
2.9%	mCh-STIM1 417C
